# B1: Drosophila Arc2 N-lobe (domain or fragment)
# chain: RFSGQRDHDAVDEFINAVETYKEVEGISDKDALKGLPLLFKSIAVVWWKGVRRDAKTWSDALQLLRDHFSPT
# notes: monomeric mass 8.4 kDa; Tetramer in solution (SEC-MALS, SAXS); domain-swapped dimer in the crystal; also called dArc2-NL; source: E. coli BL21(DE3), purified (Ni-NTA, TEV cleavage, second Ni-NTA, Superdex S200); not shown: His tag, N-terminal, cleaved; MBP, N-terminal, cleaved
# B2: Drosophila Arc2 C-lobe (domain or fragment)
# chain: KPSYQIYMEIFETKQSYDEVIDSFICKQRALLAKLPEGRHDEETELDFIYGLMQPKYRESIPRHEVKTFRELLDRGRTVERTRH
# notes: Arc2 (dArc2) of Drosophila, isolated C-lobe; monomeric mass 10 kDa; Dimer in the crystal and in solution; also called dArc2-CL; source: E. coli BL21(DE3), purified (Ni-NTA, TEV cleavage, second Ni-NTA, amylose resin, Superdex S200); not shown: His tag, N-terminal, cleaved; MBP, N-terminal, cleaved
# B3: Drosophila Arc1 C-lobe (domain or fragment)
# chain: KPAYQIYMEFFQNKQDDHDPIDTFVIQKRALLAQLPSGRHDEETELDLLFGLLNIKYRKHISRHSVHTFKDLLEQGRIIEHNNQED
# notes: Arc1 (dArc1) of Drosophila, isolated C-lobe; monomeric mass 11 kDa; Dimer in the crystal and in solution; also called dArc1-CL; source: E. coli BL21(DE3), purified (Ni-NTA, TEV cleavage, second Ni-NTA, amylose resin, Superdex S200); not shown: His tag, N-terminal, cleaved; MBP, N-terminal, cleaved
# B4: Drosophila Arc1 N-lobe (domain or fragment)
# chain: SFGGTRDHDVVEEFIGNIETYKDVEGISDENALKGISLLFYGMASTWWQGVRKEATTWKEAIALIREHFSPT
# modifications: limits inferred from the homologous dArc2-NL construct (6SIB, 37-109), the 8.2 kDa monomer mass and the dArc1-CL start at 123 (6SID); start uncertain by about 1 residue; dimer in solution / limits …
# What was measured:
# [1] = biological target: the molecule itself; experiment: SEC-MALS + other: SAXS; SEC-MALS on Superdex S200 Increase 10/300 in TBS (20 mM Tris-HCl pH 7.4, 150 mM NaCl); SEC-SAXS on Superdex S200 Increase 3.2 in TBS, injected at 5 mg/ml, +10°C
# [2] = biological target: T1, Drosophila Arc1 N-lobe (Drosophila); experiment: as above; conditions: both partners purified
# T1 chain: B4 chain
Binder,stoichiometry N [1],stoichiometry N [2]
B1,4,–
B2,2,–
B3,2,–
B4,–,2

# — article PMC8121366, “Crystal and solution structures reveal oligomerization of individual capsid homology domains of Drosophila Arc” (PLoS ONE, 2021)
